The test system of data set [1] is CCCC(=O)Oc1ccc([N+](=O)[O-])cc1. The data set is described as follows: purified protein. As to conditions: pH 7, 37°C.
Data set [2] deals with CC(=O)Oc1ccc([N+](=O)[O-])cc1. The data set is described as follows: purified protein. The settings on record: pH 7, 37°C.
The test system of data set [3] is CCCCCC(=O)Oc1ccc([N+](=O)[O-])cc1. The data set is described as follows: purified protein. The settings on record: pH 7, 37°C.
Data set [4] relates to CCC(=O)Oc1ccc([N+](=O)[O-])cc1. The data set is described as follows: purified protein. The settings on record: pH 7, 37°C.
Substrate in data set [5]: CCCC(=O)Oc1ccc([N+](=O)[O-])cc1
The data set is described as follows: pNP release, initial rates, Michaelis-Menten fit. In kind it is biochemical, Rhodopseudomonas palustris. The settings on record: pH 9, 37°C.

Substrate in data set [6]: CCCCCC(=O)Oc1ccc([N+](=O)[O-])cc1
The data set is described as follows: pNP release, initial rates, Michaelis-Menten fit. Type of data set: biochemical, Rhodopseudomonas palustris. As to conditions: pH 9, 37°C.

Substrate in data set [7]: CCC(=O)Oc1ccc([N+](=O)[O-])cc1
The data set is described as follows: pNP release, initial rates, Michaelis-Menten fit. The settings on record: pH 9, 37°C. Type of data set: biochemical, Rhodopseudomonas palustris.

Substrate in data set [8]: CC(=O)Oc1ccc([N+](=O)[O-])cc1
The data set is described as follows: pNP release, initial rates, Michaelis-Menten fit. Type of data set: biochemical, Rhodopseudomonas palustris. The settings on record: pH 9, 37°C.

Substrate in data set [9]: CC(=O)Oc1ccc([N+](=O)[O-])cc1
The data set is described as follows: pNP release, initial rates, Michaelis-Menten fit. In kind it is biochemical, Streptomyces avermitilis. The settings on record: pH 8, 37°C.

Substrate in data set [10]: CCC(=O)Oc1ccc([N+](=O)[O-])cc1
The data set is described as follows: pNP release, initial rates, Michaelis-Menten fit. Type of data set: biochemical, Pseudomonas putida.

Substrate in data set [11]: CCCCCCCCCC(=O)Oc1ccc([N+](=O)[O-])cc1
The data set is described as follows: pNP release, initial rates, Michaelis-Menten fit. In kind it is biochemical, Pseudomonas putida. The settings on record: pH 8, 37°C.

Substrate in data set [12]: CC(=O)Oc1ccc([N+](=O)[O-])cc1
The data set is described as follows: pNP release, initial rates, Michaelis-Menten fit. In kind it is biochemical, Pseudomonas putida.

Substrate in data set [13]: CCCCCC(=O)Oc1ccc([N+](=O)[O-])cc1
The data set is described as follows: pNP release, initial rates, Michaelis-Menten fit. In kind it is biochemical, Pseudomonas putida. As to conditions: pH 8, 37°C.

Substrate in data set [14]: CCCCCCCCCC(=O)Oc1ccc([N+](=O)[O-])cc1
The data set is described as follows: pNP release, initial rates, Michaelis-Menten fit. Type of data set: biochemical, Pseudomonas aeruginosa. The settings on record: pH 8, 37°C.

Substrate in data set [15]: CC(=O)Oc1ccc([N+](=O)[O-])cc1
The data set is described as follows: pNP release, initial rates, Michaelis-Menten fit. As to conditions: pH 8, 37°C. In kind it is biochemical, Pseudomonas aeruginosa.

Substrate in data set [16]: CCCCCC(=O)Oc1ccc([N+](=O)[O-])cc1
The data set is described as follows: pNP release, initial rates, Michaelis-Menten fit. As to conditions: pH 8, 37°C. In kind it is biochemical, Pseudomonas aeruginosa.

We go through eight molecules from publication PMC3815341.

Consider “RpEST-1 (Rhodopseudomonas palustris CGA009)”, for which the Km in data set [1] stood at 500 ± 0 µM; in [2], 300 ± 0 µM; in [3] it was 1900 ± 100 µM; in data set [4], 1500 ± 100 µM. For the same molecule, the catalytic constant (kcat) in data set [1] was found to be 75.5 ± 1.6 s⁻¹; in data set [2] it was 65.6 ± 1.5 s⁻¹; in data set [3] it was 217 ± 11.8 s⁻¹; in data set [4], 307 ± 15.3 s⁻¹. For the same molecule, the kcat/Km in data set [1] stood at 151000 M⁻¹ s⁻¹; in data set [2], 219000 M⁻¹ s⁻¹; in [3] it was 114000 M⁻¹ s⁻¹; in data set [4] it was 205000 M⁻¹ s⁻¹.

B1: RpEST-3 (Rhodopseudomonas palustris CGA009) (protein)
chain: MPSFDHAGVNIAYLDEGEGEPILLIHGFASNKNVNWVYPSWLSELKRTGRRVIAIDNRGHGESSKLYDPNDYTLEAMASDAVALMDHLGIARADVMGYSMGARIGANLARRQEQRVRSVVLGGLGMGLLSNEGRPGENVARALEADALDDVTDPVGRTFRAFADQTRSDRKALAACMRGSRGLMSREDAAQIAVPVLIAVGTDDDVAGSAHELGDIIPGSQVLDIPRRDHMRAVGDRVYKEGVVDFLARRP
As for B1, in data set [5], the Km turned out to be 3600 ± 400 µM, the kcat was 7.2 ± 0.7 s⁻¹ and the kcat/Km stood at 2000 M⁻¹ s⁻¹. For the same molecule, in [6], the Km was determined as 2100 ± 300 µM, the kcat was 5 ± 0.4 s⁻¹ and the kcat/Km came out at 2400 M⁻¹ s⁻¹.

B2: RpEST-2 (Rhodopseudomonas palustris CGA009) (protein)
chain: MSEAVMAGAEAFAFDGGKTGVLLVHGFTGSPQSMRYLGERLGERGYSILGPRLPGHGVSPAAMAKTTANDWVNCAEDALLELSAKCDKTFVAGLSMGGTLSLYLAASHPDKVAGVIPINAAVQIDSPDLAGLAYARGLPEFVPGIGSDMVDTSTKELAYDQVPVTCVKQVMGLAATARALLPRIKCPTLVINSRVDHVLSPANATVIANHVGSSRIETLWLDNSYHVATIDNDKDLIAAEIDSFVTRNL
B2: in data set [7], the Km came to 4900 ± 1800 µM, the kcat is 24.4 ± 7.8 s⁻¹ and the kcat/Km came out at 4900 M⁻¹ s⁻¹. In data set [8], the Km amounted to 1400 ± 200 µM, the kcat amounted to 52.7 ± 4.3 s⁻¹ and the kcat/Km worked out at 37600 M⁻¹ s⁻¹.

B3: SavEST-1 (Streptomyces avermitilis MA-4680 = NBRC 14893) (protein)
chain: MTSQHVVGRFFDVQGGQVYAHVREGDGPALIFLHYWGGSRRTWIPVLQRLDPGQGFVAYDQRGWGGSTSVPGPYDLEQLADDAQRVVDALGYSRYVLVGHSMGGKVAQILAARKPAGLRGVVLVAPAPPAPIGVTEQVQETVSHAYDNEEAVLQSIDLMLTRGGLTPELRRQVVEDSLRGGDEARLEWPRRGLVQDVSAGVSAIEVPVLVLAGSHDKVDPPTVLADHLLPLIPTATLTVLKDTGHLSPLEVPDQVAAHIGAFVAQL
On to B3, for which, in [9], the Km stood at 300 ± 0 µM, the kcat amounted to 2.9 ± 0.1 s⁻¹ and the kcat/Km worked out at 9500 M⁻¹ s⁻¹.

B4: PpEST-3 (Pseudomonas putida KT2440) (protein)
chain: MIQPVAERTPAGTSYLDVGQGQPVVLIHGVGLNKEMWGGQFVGLANDYRVIAYDMLGHGQSRVPAADTPLEGYADQLAELLDHLQIAQATVIGFSMGGLVARAFALNYPQRLAALVVLNSVFNRTPEQSAGVIARAAQAAELGPDANVDAALDRWFSREYKAANPAQVAAIRQVLASNDPQGYHTTYSLFATQDMYRADDLGSIQVPTLIATGELDSGSTPAMTRQLAACIPGARSVVLAEQRHMMPVEAPREVNKMLLDFLTQARTLTESAKGIVA
Regarding B4, the Km in data set [10] (pH 8, 37°C) came out at 100 ± 0 µM; in data set [11] it was 800 ± 100 µM; in data set [12] (pH 8, 37°C) it was 1000 ± 100 µM; in [13] it was 200 ± 0 µM. For the same molecule, the kcat in data set [10] (pH 8, 37°C) was determined as 6.8 ± 0.1 s⁻¹; in data set [11], 8.7 ± 0.4 s⁻¹; in data set [12] (pH 8, 37°C), 6.2 ± 0.3 s⁻¹; in data set [13], 12.1 ± 0.3 s⁻¹. For the same molecule, the kcat/Km in data set [10] (pH 8, 37°C) was determined as 67900 M⁻¹ s⁻¹; in data set [11], 10900 M⁻¹ s⁻¹; in data set [12] (pH 8, 37°C), 6200 M⁻¹ s⁻¹; in data set [13] it was 60400 M⁻¹ s⁻¹.

B5: PaEST-1 (Pseudomonas aeruginosa) (protein)
chain: MKRFLLGLVLLLAVAAGVLYFVPATLLASVRTVERGLAGLSEHSVQVDNLEIAYLEGGSEKNPTLLLIHGFGADKDNWLRFARPLTERYHVVALDLPGFGDSSKPQQASYDVGTQAERVANFAAAIGVRRLHLAGNSMGGHIAALYAARHPEQVLSLALIDNAGVMPARKSELFEDLERGENPLVVRQPEDFQKLLDFVFVQQPPLPAPLKRYLGERAVAASAFNAQIFEQLRQRYIPLEPELPKIEAPTLLLWGDRDRVLDVSSIEVMRPLLKRPSVVIMENCGHVPMVERPEETAQHYQAFLDGVRNAQVAGR
Turning to B5, in data set [14], the Michaelis constant (Km) worked out at 1200 ± 200 µM, the kcat turned out to be 9.2 ± 1 s⁻¹ and the kcat/Km amounted to 7600 M⁻¹ s⁻¹. In data set [15], the Km is 1400 ± 200 µM, the kcat turned out to be 1.9 ± 0.2 s⁻¹ and the kcat/Km was determined as 1300 M⁻¹ s⁻¹. In addition, in data set [16], the Km is 1400 ± 400 µM, the kcat worked out at 12.9 ± 2.4 s⁻¹ and the kcat/Km worked out at 9200 M⁻¹ s⁻¹.

B6: PpEST-2 (Pseudomonas putida KT2440) (protein)
chain: MSTFVTRDGTSIYFKDWGSGKPVLFSHGWPLDADMWDSQMEFLASRGYRAIAFDRRGFGRSSQPWNGYDYDTFADDIAQLIEHLDLRDVTLVGFSMGGGDVSRYIARHGSERVAGLVLLGAVTPVFGKRDDNPDGVDLSVFEGIRAGLRADRAQFIADFATPFYGLNHGQQVSQGVQTQTLNIALMASIKGTLDCVTAFSETDFRPDMAKVDVPTLVIHGDDDQIVPFETTGKQAAELIRGAELKVYAGAPHGFAVTHAQQLNEDLLAFLQR
For B6, in [10] (pH 9, 37°C), the Km came out at 1000 ± 100 µM, the kcat came out at 3 ± 0.1 s⁻¹ and the kcat/Km amounted to 3000 M⁻¹ s⁻¹. In data set [12] (pH 9, 37°C), the Km was 1100 ± 100 µM, the kcat came out at 12.5 ± 0.5 s⁻¹ and the kcat/Km turned out to be 11400 M⁻¹ s⁻¹.

B7: PpEST-1 (Pseudomonas putida KT2440) (protein)
chain: MRNRLVLLPGWGLGTAALEPLAASLRAQDARLQVELMPLPELAHSDVQAWIDHLDRKLPNDVWLGGWSLGGMLASALAHKRGDHCCGLLTLASNPSFLARPDWPHGMAEDTFGTFLDGCRNHTQVTLKRFRTLCSDGALQPRTLLRQLGVGVPETDPLYLATGLEVLAKLDTREALQAYDGPQLHLFAGSDALVPAEAAKALSELLPDVEVGMVEDSSHAFLLEYPQELAAGIKSFLHESGDD
For B7, in data set [10] (pH 8, 37°C), the Km is 3000 ± 400 µM, the kcat came out at 3.1 ± 0.3 s⁻¹ and the kcat/Km amounted to 1000 M⁻¹ s⁻¹. In data set [12] (pH 8, 37°C), the Km turned out to be 1400 ± 100 µM, the kcat amounted to 3.9 ± 0.2 s⁻¹ and the kcat/Km was 2800 M⁻¹ s⁻¹.

Usually Km stands for the substrate concentration at which the rate is half of its maximum. Broadly, the kcat is the number of substrate molecules converted per active site and unit of time at saturation. As a reminder, the kcat/Km is the turnover number divided by the Michaelis constant.
